Reference: article PMC10115629, “Structural basis for GSDMB pore formation and its targeting by IpaH7.8” (Nature, 2023)

B1: Shigella flexneri IpaH7.8 without affinity tag (co-expressed with GSDMB) (enzyme)
chain: MFSVNNTHSSVSCSPSINSNSTSNEHYLRILTEWEKNSSPGEERGIAFNRLSQCFQNQEAVLNLSDLNLTSLPELPKHISALIVENNKLTSLPKLPAFLKELNADNNRLSVIPELPESLTTLSVRSNQLENLPVLPNHLTSLFVENNRLYNLPALPEKLKFLHVYYNRLTTLPDLPDKLEILCAQRNNLVTFPQFSDRNNIRQKEYYFHFNQITTLPESFSQLDSSYRINISGNPLSTRVLQSLQRLTSSPDYHGPQIYFSMSDGQQNTLHRPLADAVTAWFPENKQSDVSQIWHAFEHEEHANTFSAFLDRLSDTVSARNTSGFREQVAAWLEKLSASAELRQQSFAVAADATESCEDRVALTWNNLRKTLLVHQASEGLFDNDTGALLSLGREMFRLEILEDIARDKVRTLHFVDEIEVYLAFQTMLAEKLQLSTAVKEMRFYGVSGVTANDLRTAEAMVRSREENEFTDWFSLWGPWHAVLKRTEADRWAQAEEQKYEMLENEYSQRVADRLKASGLSGDADAEREAGAQVMRETEQQIYRQLTDEVLALRLSENGSRLHHS
notes: only the LRR domain is visible in the map; source: E. coli BL21 (DE3), co-expressed with His6-SUMO-GSDMB, complex purified (Ni-NTA, Hitrap Q, Superdex 200)
B2: human GSDMB isoform 1 construct for cryo-EM, 3C protease site inserted after K239 (uncleaved, full length) (natural protein)
chain: MFSVFEEITRIVVKEMDAGGDMIAVRSLVDADRFRCFHLVGEKRTFFGCRHYTTGLTLMDILDTDGDKWLDELDSGLQGQKAEFQILDNVDSTGELIVRLPKEITISGSFQGFHHQKIKISENRISQQYLATLENRKLKRELPFSFRSINTRENLYLVTETLETVKEETLKSDRQYKFWSQISQGHLSYKHKGQREVTIPPNRVLSYRVKQLVFPNKETMSAGLDIHFRGKTKSFPEGKLEVLFQGPSLGSEDSRNMKEKLEDMESVLKDLTEEKRKDVLNSLAKCLGKEDIRQDLEQRVSEVLISGELHMEDPDKPLLSSLFNAAGVLVEARAKAILDFLDALLELSEEQQFVAEALEKGTLPLLKDQVKSVMEQNWDELASSPPDMDYDPEARILCALYVVVSILLELAEGPTSVSS
notes: human gasdermin B isoform 1 (Q8TAX9-1), full length, with a human rhinovirus 3C protease site (LEVLFQ/GP) inserted after residue K239; The methods say the 3C site is in 'the GSDMB construct used for cryo-EM structural determination'; source: E. coli BL21 (DE3), co-expressed with IpaH7.8, complex purified (Ni-NTA, Hitrap Q, Superdex 200); not shown: His6-SUMO, N-terminal, cleaved

Tests used:
[1] = target: human GSDMB (isoform 1, Q8TAX9-1), full length (human); assay: ITC; VP-ITC, 20 °C, 25 mM Tris-HCl pH 8.0, 150 mM NaCl; IpaH7.8 (200 μM) injected into GSDMB (10 μM), or IpaH7.8 (625 μM) into hGSDMD or mGSDMD (40 μM); 25 injections; one-site binding model
[2] = target: T1, human GSDMD, full length (human), P57764; assay: as above; details: remark: other sources report otherwise
T1 chain: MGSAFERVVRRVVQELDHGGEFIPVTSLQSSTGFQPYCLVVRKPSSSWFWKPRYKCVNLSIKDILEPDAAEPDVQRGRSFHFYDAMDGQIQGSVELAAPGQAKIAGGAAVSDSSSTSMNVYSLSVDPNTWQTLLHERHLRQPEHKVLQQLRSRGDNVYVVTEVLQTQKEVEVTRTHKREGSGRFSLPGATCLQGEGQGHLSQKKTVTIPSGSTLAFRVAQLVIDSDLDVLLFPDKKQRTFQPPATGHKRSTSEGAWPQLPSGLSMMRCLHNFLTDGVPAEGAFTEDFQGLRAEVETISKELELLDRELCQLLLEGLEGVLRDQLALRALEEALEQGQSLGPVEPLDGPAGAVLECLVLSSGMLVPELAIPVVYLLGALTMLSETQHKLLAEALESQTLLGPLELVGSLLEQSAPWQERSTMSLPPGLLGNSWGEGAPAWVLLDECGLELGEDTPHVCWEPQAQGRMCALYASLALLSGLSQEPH

[3] = target: B2; assay: cryo-EM structure; GSDMB-IpaH7.8 complex co-expressed in E. coli and co-purified, 0.5 mg/ml, 25 mM HEPES pH 7.5, 150 mM NaCl; 3.8 Å; details: both partners purified
[4] = target: B1; assay: as above; details: both partners purified
[5] = target: the molecule itself; assay: cryo-EM structure; GSDMB isoform 1 cleaved by 3C protease on liposomes, pores solubilised with C12E8 and purified on Superose 6; C24 symmetry, 4.96 Å (globular domain 4.48 Å)

Shigella flexneri IpaH7.8 (wild type), C-terminal 6XHis construct (from UniProt P18014 1-565) (enzyme)
Kd [1]: 440 nM

B1
Kd [2]: 20.4 µM | stoichiometry N [3]: 1

B2
binding result [4]: binds

B3: GSDMB isoform 1 pore subunit (N-terminal domain after 3C protease cleavage) (domain or fragment)
chain: MFSVFEEITRIVVKEMDAGGDMIAVRSLVDADRFRCFHLVGEKRTFFGCRHYTTGLTLMDILDTDGDKWLDELDSGLQGQKAEFQILDNVDSTGELIVRLPKEITISGSFQGFHHQKIKISENRISQQYLATLENRKLKRELPFSFRSINTRENLYLVTETLETVKEETLKSDRQYKFWSQISQGHLSYKHKGQREVTIPPNRVLSYRVKQLVFPNKETMSAGLDIHFRGKTKSFPEGKLEVLFQ
notes: human gasdermin B isoform 1 (Q8TAX9-1), from the start to K239, after which the 3C site was inserted; what is left of the 3C protease site (LEVLFQ/GP) after cleavage; Pores were 24-26-fold symmetric; GSDMB-C was removed by size exclusion; also called GSDMB pore; GSDMB prepore; source: E. coli BL21 (DE3), purified; cleaved by 3C protease on liposomes, pores extracted with C12E8 and purified on …
stoichiometry N [5]: 24
